The target of assay [1] is vault-Z nanoparticle (assembly of major vault protein carrying a C-terminal Z peptide) (human | staphylococcal (protein A-derived)). Put plainly: co-sedimentation; 8 nM vault-Z (624 nM MVP-Z) or authentic vault incubated 1 h with 40 to 320 nM Tz in 12 mM sodium phosphate pH 7.2, 0.14 M NaCl, 2.7 mM KCl; pelleted at 100,000 x g, 2 h, 4 °C; pellets quantified by SDS-PAGE densitometry and LC/MS; apparent KD from a quadratic binding equation.

Assay [2] addresses Trastuzumab. As to the kind of experiment: SPR; same sensorgrams of Z peptide on immobilised Tz, fitted with the affinity model (Req against Z peptide concentration). A general note: Surface plasmon resonance follows binding to a sensor surface in real time, without labels.
The target of assay [3] is Trastuzumab. As to the kind of experiment: SPR; Biacore X100; Tz amine-coupled to a CM3 chip at 1220 RU; authentic vault, vault-Z or peptide Z injected 3 min at 30 uL/min, 25 °C, in 10 mM HEPES pH 7.4, 0.15 M NaCl, 3 mM EDTA, 0.05% Surfactant P20; Langmuir 1:1 kinetic fit.

pKd: −log10 of the molar value.

The results in this text go back to paper PMC11203631.

Take Trastuzumab (antibody): in assay [1], the Tz bound per vault-Z at 160 nM Tz (Tz per vault-Z) is 14 and the stoichiometry N (Tz per vault-Z) was over 10.

Broadly, the pKd is −log10 of the Kd, conventionally taken in molar units. Read a high pKd as a low Kd. For orientation: koff means the first-order rate constant of dissociation. What is called kon is a measure of how fast the partners come together. In the assay with Trastuzumab [2], Z peptide in isolation had a pKd of 7.25. In the assay with Trastuzumab [3], this substance gave a pKd of 7.42, a koff of 0.0171 s⁻¹ and a kon of 446000 M⁻¹ s⁻¹.

In the assay with Trastuzumab [3], “vault-Z nanoparticle (assembly of major vault protein carrying a C-terminal Z peptide) (complex)” had a pKd of 8.60, a koff of 0.000259 s⁻¹ and an on-rate constant (kon) of 105000 M⁻¹ s⁻¹.
